From patent US20220049021A1 (Gilead, published 2022) come the findings set out here.

In assay [1] the target is T1, human FLT3 on AML5 cells (human, UniProt P36888 27-993).
T1 sequence (looked up): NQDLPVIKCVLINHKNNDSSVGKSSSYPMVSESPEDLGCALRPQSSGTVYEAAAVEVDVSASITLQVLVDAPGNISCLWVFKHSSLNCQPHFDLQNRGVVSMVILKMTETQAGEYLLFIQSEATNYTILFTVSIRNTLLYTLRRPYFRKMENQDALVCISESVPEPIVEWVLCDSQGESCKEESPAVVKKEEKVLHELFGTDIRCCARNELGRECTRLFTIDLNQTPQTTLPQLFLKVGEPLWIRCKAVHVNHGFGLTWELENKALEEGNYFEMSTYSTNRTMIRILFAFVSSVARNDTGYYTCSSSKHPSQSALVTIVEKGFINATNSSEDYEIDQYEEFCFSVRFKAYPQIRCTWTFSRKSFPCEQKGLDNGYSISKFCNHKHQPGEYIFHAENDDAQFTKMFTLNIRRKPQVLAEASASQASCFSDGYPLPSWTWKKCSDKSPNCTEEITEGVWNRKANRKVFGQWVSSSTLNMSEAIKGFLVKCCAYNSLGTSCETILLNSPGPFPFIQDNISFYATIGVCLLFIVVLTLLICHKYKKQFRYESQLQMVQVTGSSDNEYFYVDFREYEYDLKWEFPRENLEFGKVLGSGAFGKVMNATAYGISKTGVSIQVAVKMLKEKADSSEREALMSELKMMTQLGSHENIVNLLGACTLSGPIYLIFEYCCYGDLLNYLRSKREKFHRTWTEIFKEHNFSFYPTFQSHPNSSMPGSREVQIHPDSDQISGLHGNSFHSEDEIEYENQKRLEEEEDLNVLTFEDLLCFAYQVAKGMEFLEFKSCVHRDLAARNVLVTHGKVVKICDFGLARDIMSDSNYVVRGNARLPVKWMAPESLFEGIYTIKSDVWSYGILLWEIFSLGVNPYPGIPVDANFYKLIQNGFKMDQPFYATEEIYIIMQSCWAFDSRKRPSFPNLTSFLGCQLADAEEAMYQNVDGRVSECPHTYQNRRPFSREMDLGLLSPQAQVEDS
Briefly: cell-based or functional assay.

Assay [2] deals with T1, human FLT3 on AML5 cells. In words: cell-based or functional assay. This is another data set of the same source.
The target in assay [3] is T2, recombinant human C1q protein (Fitzgerald) (human, UniProt P02745 23-245; P02746 28-253; P02747 29-245, limits assumed).
T2 construct: also called human recombinant complement protein, C1q
T2 sequence (P02745 23-245 limits assumed, chain 1 of 3): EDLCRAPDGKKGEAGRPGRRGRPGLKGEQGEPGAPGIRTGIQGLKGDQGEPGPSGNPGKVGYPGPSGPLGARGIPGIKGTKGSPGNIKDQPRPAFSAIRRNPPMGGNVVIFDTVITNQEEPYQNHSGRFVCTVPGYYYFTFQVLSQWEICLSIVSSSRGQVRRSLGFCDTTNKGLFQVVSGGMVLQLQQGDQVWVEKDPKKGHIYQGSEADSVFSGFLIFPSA
T2 sequence (P02746 28-253 limits assumed, chain 2 of 3): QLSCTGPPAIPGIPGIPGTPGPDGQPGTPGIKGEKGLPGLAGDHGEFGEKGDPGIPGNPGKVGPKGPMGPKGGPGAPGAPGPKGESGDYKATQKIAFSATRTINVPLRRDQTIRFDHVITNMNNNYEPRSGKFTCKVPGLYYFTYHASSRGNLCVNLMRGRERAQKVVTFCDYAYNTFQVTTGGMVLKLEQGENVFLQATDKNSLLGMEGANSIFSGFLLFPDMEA
T2 sequence (P02747 29-245 limits assumed, chain 3 of 3): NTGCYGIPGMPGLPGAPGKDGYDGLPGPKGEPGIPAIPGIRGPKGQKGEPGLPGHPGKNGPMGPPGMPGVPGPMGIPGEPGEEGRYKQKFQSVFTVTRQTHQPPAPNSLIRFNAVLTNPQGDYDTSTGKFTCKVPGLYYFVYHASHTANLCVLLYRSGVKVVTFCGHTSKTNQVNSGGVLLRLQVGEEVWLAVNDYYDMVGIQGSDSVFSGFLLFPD
Briefly: ELISA; test protein immobilised in serial dilution, recombinant human C1q added, anti-C1q-HRP. On the technique in general: In an ELISA, binding on a coated surface is turned into a signal by an enzyme label.

The target of assay [4] is T1, human FLT3 on AML5 cells. Briefly: cell-based or functional assay. The source holds these as a separate data set.
The target in assay [5] is T1, human FLT3 on AML5 cells. In words: cell-based or functional assay. The source holds these as a separate data set.
The target in assay [6] is T1, human FLT3 on AML5 cells. Briefly: cell-based or functional assay. The source holds these as a separate data set.
In assay [7] the target is T2, recombinant human C1q protein …. Briefly: ELISA; test protein immobilised in serial dilution, recombinant human C1q added, anti-C1q-HRP. The source holds these as a separate data set.

Residue numbers refer to the chain shown, from its start. In names and notes the source's numbering stands. Read-outs that look alike come from different tables or passages of the source.

B1: human FLT3-ligand human hingeless IgG1 fusion protein (SEQ ID NO:1) (Fc fusion)
chain: TQDCSFQHSPISSDFAVKIRELSDYLLQDYPVTVASNLQDEELCGGLWRLVLAQRWMERLKTVAGSKMQGLLERVNTEIHFVTKCAFQPPPSCLRFVQTNISRLLQETSEQLVALKPWITRQNFSRCLELQCQPDSSTLPPPWSPRPLEATAPTAPQGGPSVFLFPPKPKDTLMISRTPEVTCVVVDVSHEDPEVKFNWYVDGVEVHNAKTKPREEQYNSTYRVVSVLTVLHQDWLNGKEYKCKVSNKALPAPIEKTISKAKGQPREPQVYTLPPSREEMTKNQVSLTCLVKGFYPSDIAVEWESNGQPENNYKTTPPVLDSDGSFFLYSKLTVDKSRWQQGNVFSCSVMHEALHNHYTQKSLSLSPGK
notes: Made in Expi293 or ExpiCHO; also called FLT3L ECD-hingeless hG1; hFLT3L ECD
For the molecule B1, the “EC50 (nM), Inducing Proliferation of AML5 Cells” value was determined as 0.04 nM in assay [1], 0.078 nM in assay [4] and 0.034 nM in assay [5]. The “EC50 (nM), AML5 Proliferation Assay” value was found to be 0.08 nM in assay [2] and 0.05 nM in assay [6]. The binding result in assay [3] is “no binding (tested: 94 nM (top of the titration))”.

B2: human FLT3-ligand human hingeless IgG1 (M252Y/S254T/T256E) fusion protein (SEQ ID NO:9) (Fc fusion)
chain: B1 chain with M174Y, S176T, T178E
notes: also called FLT3L ECD-hingeless hG1 (M252Y/S254T/T256E)
Take B2: the binding result in assay [7] is given as “no binding (tested: 94 nM (top of the titration))”. Besides, the “EC50 (nM), AML5 Proliferation Assay” value in assay [6] is 0.037 nM.

B3: human FLT3-ligand (S128A/S151A) human hingeless IgG1 fusion protein (SEQ ID NO:5) (Fc fusion)
chain: B1 chain with S102A, S125A
notes: also called Aglyco-FLT3L ECD (S128A/S151A) hingeless hG1
For B3, the “EC50 (nM), AML5 Proliferation Assay” value in assay [2] was determined as 0.078 nM. Further, the binding result in assay [3] is “no binding (tested: 94 nM (top of the titration))”.

B4: human FLT3-ligand (Δ5 amino acid) human IgG4 (S228P/F234A/L235A/M252Y/S254T/T256E) fusion protein (SEQ ID NO:14) (Fc fusion)
chain: TQDCSFQHSPISSDFAVKIRELSDYLLQDYPVTVASNLQDEELCGGLWRLVLAQRWMERLKTVAGSKMQGLLERVNTEIHFVTKCAFQPPPSCLRFVQTNISRLLQETSEQLVALKPWITRQNFSRCLELQCQPDSSTLPPPWSPRPLEATAESKYGPPCPPCPAPEAAGGPSVFLFPPKPKDTLYITREPEVTCVVVDVSQEDPEVQFNWYVDGVEVHNAKTKPREEQFNSTYRVVSVLTVLHQDWLNGKEYKCKVSNKGLPSSIEKTISKAKGQPREPQVYTLPPSQEEMTKNQVSLTCLVKGFYPSDIAVEWESNGQPENNYKTTPPVLDSDGSFFLYSRLTVDKSRWQEGNVFSCSVMHEALHNHYTQKSLSLSLGK
notes: also called FLT3L ECD (Δ C-term 5aa (PTAPQ))-hG4 (S228P/F234A/L235A/M252Y/S254T/T256E)
As for B4, the binding result in assay [7] is “no binding (tested: 94 nM (top of the titration))”. Moreover, the “EC50 (nM), AML5 Proliferation Assay” value in assay [6] was determined as 0.046 nM.

B5: human FLT3-ligand (Δ10 amino acid) human hingeless IgG1 fusion protein (SEQ ID NO:7) (Fc fusion)
chain: TQDCSFQHSPISSDFAVKIRELSDYLLQDYPVTVASNLQDEELCGGLWRLVLAQRWMERLKTVAGSKMQGLLERVNTEIHFVTKCAFQPPPSCLRFVQTNISRLLQETSEQLVALKPWITRQNFSRCLELQCQPDSSTLPPPWSPRPGGPSVFLFPPKPKDTLMISRTPEVTCVVVDVSHEDPEVKFNWYVDGVEVHNAKTKPREEQYNSTYRVVSVLTVLHQDWLNGKEYKCKVSNKALPAPIEKTISKAKGQPREPQVYTLPPSREEMTKNQVSLTCLVKGFYPSDIAVEWESNGQPENNYKTTPPVLDSDGSFFLYSKLTVDKSRWQQGNVFSCSVMHEALHNHYTQKSLSLSPGK
On to B5, for which the “EC50 (nM), AML5 Proliferation Assay” value in assay [2] came to 0.071 nM. The binding result in assay [3] was “no binding (tested: 94 nM (top of the titration))”.

B6: human FLT3-ligand (Δ5 amino acid) human hingeless IgG1 fusion protein (SEQ ID NO:2) (Fc fusion)
chain: TQDCSFQHSPISSDFAVKIRELSDYLLQDYPVTVASNLQDEELCGGLWRLVLAQRWMERLKTVAGSKMQGLLERVNTEIHFVTKCAFQPPPSCLRFVQTNISRLLQETSEQLVALKPWITRQNFSRCLELQCQPDSSTLPPPWSPRPLEATAGGPSVFLFPPKPKDTLMISRTPEVTCVVVDVSHEDPEVKFNWYVDGVEVHNAKTKPREEQYNSTYRVVSVLTVLHQDWLNGKEYKCKVSNKALPAPIEKTISKAKGQPREPQVYTLPPSREEMTKNQVSLTCLVKGFYPSDIAVEWESNGQPENNYKTTPPVLDSDGSFFLYSKLTVDKSRWQQGNVFSCSVMHEALHNHYTQKSLSLSPGK
notes: also called FLT3L ECD (Δ C-term 5aa (PTAPQ))-hingeless hG1
With B6, the “EC50 (nM), AML5 Proliferation Assay” value in assay [2] was 0.083 nM. In addition, the binding result in assay [3] is “no binding (tested: 94 nM (top of the titration))”.
